Test system: K4 kissing-loop RNA reporter
Assay: apparent KD of K4 kissing-loop reporter; higher = weaker reporter binding
Conditions: Eterna round: R107
Description: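 RNA-MaP round R107: designed RNA switches with theophylline, tryptophan, arginine or FMN aptamers are transcribed on-chip within common flanks. They are titrated with a labelled K4 kissing-loop RNA reporter in RNA-MaP buffer (100 mM Tris pH 7.5, 80 mM KCl, 4 mM MgCl2), without ligand or with the indicated ligand. Median apparent KD per design.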

[1] = input ligand: theophylline 20 uM
[2] = input ligand: tryptophan 2.4 mM
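Note: bound reporter read as fluorescence of individual clusters on recovered sequencing chips by microscopy, with normalized cluster intensities fitted with a binding model.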

Sequence | apparent KD of K4 kissing-loop reporter (input ligand: FMN 200 uM) [nM] | apparent KD of K4 kissing-loop reporter (input ligand: arginine 13.2 mM) [nM] | apparent KD of K4 kissing-loop reporter (input ligand: none) [nM] | apparent KD of K4 kissing-loop reporter [1] [nM] | apparent KD of K4 kissing-loop reporter [2] [nM]
UGAUACCAGGCGGCCGCCACUCCCGCAGGUCAAAGACCUGCGAAGCUGGUUCUUCAGUGAUGUUGGAGGACCGGGCCUGGUAUCU [FiskerMod 25 - Jieux - Exclusion - Tryptophan B] | 253 | 211 | 236 | 232 | 494
AUUUGUUUAUGUGAUACCAGACUUUGCAGUGAUGUUGCAUUUAUUUUAGAAUUUUAUUUAGUCCCUUGGCAGCACUAUGUAUUUA [JR_SSTheophyB_Sub007] | 47 | 90.4 | 53.1 | 92.5 | 45.9
AAAUUUUCGAGUGAUGUUCGAAUAAUUUCAGAGGAUAUGCUUAAAAGCAGAAGGCUGUAUUACUAUUUGUUAUUAAAUUUUAUAA [JR_ExcFMNA_Sub001] | 106 | 110 | 96.7 | 105 | 86.2
CAUACGCAUGGAGGAUAUGAGAUUUCUCAUAUUAUUUAAUAUUCUCAGUGAUGUUGAGAUUUAAACUCAGAAGGCCAUGUGUAUG [Ex FMN B 6] | 388 | 235 | 239 | 279 | 242
AGGAGUGAUGUUCCUACAUAGACGGUCCGACGAGGACCGGUACGGCCGCCACUCGCGUCCCAGUGAUGUUGGGAUUCAACGUACA [Exclusion Tryptophan A Gf 15] | 120 | 150 | 139 | 149 | 122
UAACUUGCAGUGAUGUUGCAAGAACUGGAUACCAGCAUGGAAACAUGCCCUUGGCAGCCAGAAGCUGGCUGACUGCAAGGUCAGC [Design4] | 148 | 142 | 124 | 136 | 123
GCGCGUCAUGUCAGCGGUGACACUGUCGAUACCAGCGCCGCAAGGCGCCCUUGGCAGCGACGUGCUGGAGUGAUGUUCCAGCGUC [#2 Exclusion - Theophylline A Attempt #22 (HarryS)] | 159 | 113 | 145 | 142 | 140
ACUAAGGUUUUUGGAGCAGUGAUGUUGCUCCGAGGACCGGUACGGCCGCCACUCGGUGCAUGUAUGCGCUUCACUCCGGAAGUUG [Bieron] | 152 | 140 | 165 | 148 | 139
AGACUUCACCGAAGGAGCGACGUAGCCUAGUGAUGUUAGGCACGAGAGAAAUCUCGUGUACGUCAGGUAGGUCGCGGUGAAGUCA [Omei KL Arginine B SS C v5] | 990 | 630 | 961 | 827 | 1040
UUGAGCCGGACUCAAGUCCGGCUCUGCGAGCGAGGACCGGUACGGCCGCCACUCGGUGCAGUGAUGUUGCAUGGCCGCAAGGCCG [#2 Exclusion - Tryptophan A Attempt #13 (HarryS)] | 413 | 133 | 482 | 404 | 520
UCGGACCCUGGAGGAUAUGAGUCUAGUGAUGUUAGGCGGUCCAUGCGCGUGGCGCGUUAUGCCCUUUUAGAAGGCCAGGGUCCGA [#2 Exclusion - FMN B Attempt #15 (HarryS)] | 113 | 72.4 | 104 | 90.7 | 84.6
UUUUACGAGUGAUGUUCGUAAUGUAAUAGUUAGGAUAUCGUUUUUUCGAGAAGGAACUUCGAAGUGAUACGAAAGUAUCGCUUCG [FMN A 9] | 127 | 160 | 184 | 154 | 159
AGCUCAGAGUGACUCGAUAAGAGUCACAAACGAGGACCGGUACGGCCGCCACUCGAAAUAACGAGAGUGAUGUUCUCACUGAGCA [FiskerMod 11 - Jieux - Same State Tryptophan A] | 1150 | 635 | 1260 | 808 | 378
AUAAACUUGCAGUGAUGUUGCAAGUGAGACUAGGAUAUCAGGAAGCUGAGAAGGAGUCAUCUCCUUCAAACAUCACUAUGAAGGA [whbob_SS_FMNA__2th178] | 403 | 287 | 336 | 232 | 292
CAUACGCAUGGAGGAUAUGAGAUUACUCAUAUCAUUUAAUAUUCUCAGUGAUGUUGAGAUUUGGGCUCAGAAGGCCAUGUGUAUG [Ex FMN B 15] | 479 | 304 | 339 | 343 | 317
AGUGAUGUAUGGCGGUUUGUCACUUAUUAUCAGGAUAUAUAAACAAAUAGAAGGGAUGGCGGAGUGAUGUUCCGCCGGCCGCCAU [FMN A Exl V5] | 172 | 140 | 150 | 157 | 166

Sequence | apparent KD of K4 kissing-loop reporter (input ligand: FMN 200 uM) [nM] | apparent KD of K4 kissing-loop reporter (input ligand: arginine 13.2 mM) [nM] | apparent KD of K4 kissing-loop reporter (input ligand: none) [nM] | apparent KD of K4 kissing-loop reporter [1] [nM] | apparent KD of K4 kissing-loop reporter [2] [nM]
UUCUACGAGUGAUGUUCGUAGUGUAUUCACUAGGAUAUCGUUUUUUCGAGAAGGAGUGAGGAAGUGAUACGAAAGUAUCGCUUCC [FMN A 15] | 192 | 353 | 431 | 361 | 378
UGCACGGGCUCGGCCGCCACUCCCGCGGGUCGGAAGGUCCGCUACUGAGUGAUGUUCGGUUGGAGGAGGACCGGGAGCCCGUGCA [#2 Exclusion - Tryptophan B Attempt #26 (HarryS)] | 135 | 109 | 104 | 104 | 88.5
UGUAUGGACUGAAGGAGCGGUAGAUAAACUGAGUGAUGUUCGGCAGAUAAAGGCGCAAGCCACCAGGUAGGUCGCAGUCCAUACU [KL-SSArg B3] | 381 | 274 | 391 | 408 | 342
GGGUGGCAGGCGGCCGCCACUCUUAGCAGCCAGUGAGUGAUGUUCGUGGCGGAAGAAUGUUCGUAGAGGACCGGGUUUGUUGUUC [Same State Tryptophan B GF 21] | 262 | 180 | 257 | 254 | 216
UAUCGAGUGAUGUUCGAUGUAGUUCAUUCAGAGGAUAUAGGAUGGGCUAGAAGGCUGAAAAGUGCUUCGAGUGAUGUUCGAAGAU [Exclusion FMN A GF 6] | 64.6 | 40.9 | 53.7 | 40.9 | 44.7
AUCUGUCAAGGACAACAUUACUGAGGUGAUACCAGCAUCGAAAGAUGCCCUUGGCAGCACCAACUUGCAGUGAUGUUGCAAGUAA [BrourdMod 10 - Jieux - Exclusion - Theophylline A] | 346 | 236 | 332 | 393 | 299
AAUAAGGUCGCCGAUACCAGCGCAGGCAGAGCAAAGCUCUGCCAAGUAGUGAUGUUACUGCGCCCUUGGCAGCGGUGGCACGACC [Omei KL Theo B SS C v3] | 196 | 157 | 163 | 123 | 167
ACGUAGUUCUAGGAUACCAGCCAAGAAGCCAGGACAAAAGUCCUGGCUGCCAGUGAUGUUGGCCCUUGGCAGCCUAGAACUACGA [Omei KL Theo B Exc B v10] | 128 | 113 | 121 | 109 | 121
UUAGUAUAGAGAGGAUAUACCUUCCAGUGAUGUUGGAUAGAUGAAUUUAAUCAUCAAGCAUAGCUUGUAGAAGGCUCUAUACAUU [AK1 SS FMN B] | 373 | 558 | 535 | 637 | 613
GGAUUUGAGUGAUGUUUAAAACGAGUGUCCAAGGAUAUUGCCCAAACAAGAAGGUGGGCAUGCUUUUGCGAUAAUCAACGGAGAC [theeternabot_exclusion_KL_FMN_A_9] | 408 | 666 | 451 | 606 | 291
UGUUGAGUGAUGUUCGAUGUAGUUCAUUCAGAGGAUAUAGGGUGGGCUAGAAGGCUGAAAAGUGCUUCGAGUGAUGUUCGAAGAU [Exclusion FMN A GF 7] | 77.3 | 77.7 | 99.3 | 89.5 | 91.1
AAAUAAAACUAUGAUACCAGUCAUCACAGAGUGAUGUUUUGUGGCAUUUUAAACUUGGCAGACCCUUGGCAGCAUGAUAUAGGAG [theeternabot_sameState_KL_Theo_B_8] | 486 | 207 | 318 | 358 | 261
GCCUACGCUGCAGGAUAUAGUUACAGCGACUUAGCCGUUGUAUGUCCAUGGUUCAGUGAUGUUGAACUAGAAGGGCAGCGUAGGC [#02 K4 FMN B Exclusion] | 285 | 127 | 132 | 134 | 154
UAAUAUAAUCUGUCGUAAACAAUAAUUAGUCAGGAUAUCGUAUAUUCGAGAAGGGACACUAUCUAGUGAUGUUAGAUAUUUCGUU [JR_SSFMNA_Sub026] | 45.5 | 76.4 | 53.4 | 67.5 | 47.6
AACAGCAAUGCGGCCGCCACUUCGAGUUCAGUGAUGUUGAAAGAAUUAAAUAAAGAUCCCAAGAGGAGGACCGGGCAGUGCUGUU [Default title] | 596 | 448 | 530 | 621 | 418

— the supplement of paper PMC9170038
